Patent US20120316071A1 (published 2012)
Numbering of substitutions follows the chain as printed. In names and notes the source's numbering stands.

Legend:
[1] = target: T1, rHuman CD44/Fc Chimera, CF (R&D Systems Cat#3660-CD) (human, UniProt P16070 21-220); assay: ECL multispot (MSD), antigen spotted; blank spot of this well 287
T1 construct: Bought protein

[2] = target: T2, rHuman Notch-1/Fc Chimera, CF (R&D Systems Cat#3647-TK) (human, UniProt P46531 19-526); assay: as above
T2 construct: Bought protein

[3] = target: T3, rHuman EGF R/Fc Chimera, CF (R&D Systems Cat#344-ER) (human, UniProt P00533 25-645); assay: as above
T3 construct: Bought protein; also called epidermal growth factor receptor

[4] = target: T4, rHuman Erythropoietin R/Fc Chimera, CF (R&D Systems Cat#963-ER) (human, UniProt P19235 25-250); assay: as above
T4 construct: Bought protein; also called EPO R; EPO R/Fc
T4 sequence (looked up): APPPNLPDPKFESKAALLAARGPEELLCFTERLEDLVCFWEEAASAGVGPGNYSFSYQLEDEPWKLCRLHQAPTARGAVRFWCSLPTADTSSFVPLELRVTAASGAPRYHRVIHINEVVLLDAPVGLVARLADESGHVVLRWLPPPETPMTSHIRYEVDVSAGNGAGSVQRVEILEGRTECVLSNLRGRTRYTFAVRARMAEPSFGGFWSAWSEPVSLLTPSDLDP

[5] = target: T5, rHuman ErbB2/Fc Chimera, CF (R&D Systems Cat#1129-ER) (human, UniProt P04626 23-652); assay: as above
T5 construct: Bought protein; also called human epidermal growth factor 2 receptor

[6] = target: T6, rHuman P-Cadherin/Fc Chimera, CF (R&D Systems Cat#861-PC) (human, UniProt P22223 108-654); assay: as above
T6 construct: Bought protein

[7] = target: T7, Recombinant Human DLL4 (R&D Systems Cat#1506-D4/CF) (human, UniProt Q9NR61 27-524); assay: as above
T7 construct: Bought recombinant protein; also called delta-like protein 4; rHuman DLL4

[8] = target: T8, rHuman HGF R/c-MET/Fc Chimera, CF (R&D Systems Cat#358-MT/CF) (human, UniProt P08581 25-932); assay: as above
T8 construct: Bought protein; also called HGF R/Fc; hepatocyte growth factor receptor

[9] = target: T9, rHuman IGF-1 sR, CF (R&D Systems Cat#391-GR) (human, UniProt P08069 31-932); assay: as above
T9 construct: Bought soluble receptor; also called insulin-like growth factor-1 soluble receptor

[10] = target: T1, rHuman CD44/Fc Chimera, CF (R&D Systems …); assay: ECL multispot (MSD), antigen spotted; blank spot of this well 229
[11] = target: T2, rHuman Notch-1/Fc Chimera, CF (R&D …); assay: as above
[12] = target: T3, rHuman EGF R/Fc Chimera, CF (R&D …); assay: as above
[13] = target: T4, rHuman Erythropoietin R/Fc Chimera, CF …; assay: as above
[14] = target: T5, rHuman ErbB2/Fc Chimera, CF (R&D …); assay: as above
[15] = target: T6, rHuman P-Cadherin/Fc Chimera, CF (R&D …); assay: as above
[16] = target: T7, Recombinant Human DLL4 (R&D Systems …); assay: as above
[17] = target: T8, rHuman HGF R/c-MET/Fc Chimera, CF (R&D …); assay: as above
[18] = target: T9, rHuman IGF-1 sR, CF (R&D Systems …); assay: as above
[19] = target: T10, rHuman IGF-1 sR (insulin-like growth factor-1 soluble receptor), CF (R&D Systems Cat#391-GR) (human, UniProt P08069 31-932); assay: ECL multispot (MSD) assay, antigen spotted on plate, Fab in solution; blank spot of this well 271
T10 construct: Bought recombinant soluble receptor

[20] = target: T11, rHuman CD44/Fc Chimera, CF (R&D Systems Cat#3660-CD) (human, UniProt P16070 21-220); assay: as above
[21] = target: T12, rHuman Erythropoietin R/Fc Chimera, CF (R&D Systems Cat#963-ER) (human, UniProt P19235 25-250); assay: as above
[22] = target: T13, rHuman HGF R/c-MET/Fc Chimera, CF (R&D Systems Cat#358-MT/CF) (human, UniProt P08581 25-932); assay: as above
[23] = target: T14, rHuman Notch-1/Fc Chimera, CF (R&D Systems Cat#3647-TK) (human); assay: as above
T14 chain: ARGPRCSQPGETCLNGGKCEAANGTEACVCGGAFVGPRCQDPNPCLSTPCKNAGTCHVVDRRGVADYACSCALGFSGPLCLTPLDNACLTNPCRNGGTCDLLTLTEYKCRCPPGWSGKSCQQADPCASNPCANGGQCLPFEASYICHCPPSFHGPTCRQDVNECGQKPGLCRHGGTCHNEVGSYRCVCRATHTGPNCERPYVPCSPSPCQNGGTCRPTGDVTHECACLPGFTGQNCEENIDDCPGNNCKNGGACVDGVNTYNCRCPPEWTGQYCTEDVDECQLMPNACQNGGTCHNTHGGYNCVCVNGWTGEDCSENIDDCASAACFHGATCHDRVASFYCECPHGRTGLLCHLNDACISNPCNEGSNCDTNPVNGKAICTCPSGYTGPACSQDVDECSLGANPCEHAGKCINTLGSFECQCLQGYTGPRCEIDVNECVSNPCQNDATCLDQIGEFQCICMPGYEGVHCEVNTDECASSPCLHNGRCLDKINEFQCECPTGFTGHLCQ

[24] = target: T15, Recombinant Human DLL4 (R&D Systems Cat#1506-D4/CF) (human, UniProt Q9NR61 27-524); assay: as above
T15 construct: Bought recombinant protein; also called delta-like protein 4; rHuman DLL4

[25] = target: T16, rHuman P-Cadherin/Fc Chimera, CF (R&D Systems Cat#861-PC) (human, UniProt P22223 108-654); assay: as above
[26] = target: T11, rHuman CD44/Fc Chimera, CF (R&D Systems …); assay: ECL multispot (MSD) assay, antigen spotted on plate, Fab in solution; blank spot of this well 338
[27] = target: T12, rHuman Erythropoietin R/Fc Chimera, CF …; assay: as above
[28] = target: T13, rHuman HGF R/c-MET/Fc Chimera, CF (R&D …); assay: as above
[29] = target: T14, rHuman Notch-1/Fc Chimera, CF (R&D …); assay: as above
[30] = target: T16, rHuman P-Cadherin/Fc Chimera, CF (R&D …); assay: as above
[31] = target: T1, rHuman CD44/Fc Chimera, CF (R&D Systems …); assay: ECL multispot (MSD), antigen spotted; blank spot of this well 261
[32] = target: T2, rHuman Notch-1/Fc Chimera, CF (R&D …); assay: as above
[33] = target: T3, rHuman EGF R/Fc Chimera, CF (R&D …); assay: as above
[34] = target: T4, rHuman Erythropoietin R/Fc Chimera, CF …; assay: as above
[35] = target: T5, rHuman ErbB2/Fc Chimera, CF (R&D …); assay: as above
[36] = target: T6, rHuman P-Cadherin/Fc Chimera, CF (R&D …); assay: as above
[37] = target: T7, Recombinant Human DLL4 (R&D Systems …); assay: as above
[38] = target: T8, rHuman HGF R/c-MET/Fc Chimera, CF (R&D …); assay: as above
[39] = target: T9, rHuman IGF-1 sR, CF (R&D Systems …); assay: as above

B1: Fab VH1-46_IGHD6-6*01_IGHJ1*01 S102A/S103P/S104F (APF) & L6_IGKJ1*01 (Fab, V domains shown)
VH: QVQLVQSGAEVKKPGASVKVSCKASGYTFTSYYMHWVRQAPGQGLEWMGIINPSGGSTSYAQKFQGRVTMTRDTSTSTVYMELSSLRSEDTAVYYCAREEYAPFSAEYFQHWGQGTLVTVSS
VL: not shown
notes: Fab made in E. coli: VH cloned into Plasmid A (CH1, His6 and Flag tags), VL into Plasmid C (kappa CL); Template of the light chain NNK mutants; also called APF / parent; H:APF & L:wt
**Q.** Which results are given for B1?
**A.** ECL signal [1]: 205; ECL signal [2]: 358; ECL signal [3]: 226; ECL signal [4]: 319; ECL signal [5]: 317; ECL signal [6]: 250; ECL signal [7]: 2440; ECL signal [8]: 344; ECL signal [9]: 162; ECL signal [10]: 223; ECL signal [11]: 398; ECL signal [12]: 363; ECL signal [13]: 252; ECL signal [14]: 331; ECL signal [15]: 189; ECL signal [16]: 2580; ECL signal [17]: 307; ECL signal [18]: 223

B2: Fab VH1-46_IGHD6-6*01_IGHJ1*01 S102A/S103P/S104F (APF) & L6_IGKJ1*01 S92N (Fab, V domains shown)
VH: B1 VH
VL: EIVLTQSPATLSLSPGERATLSCRASQSVSSYLAWYQQKPGQAPRLLIYDASNRATGIPARFSGSGSGTDFTLTISSLEPEDFAVYYCQQRNNWPPWTFGQGTKVEIKR
notes: Fab made in E. coli (heavy chain in plasmid A with CH1, His6 and Flag tags; kappa light chain in plasmid C); also called APF / S92N
**Q.** B2 was tested. Which ECL signal [19] did it give?
**A.** 211

**Q.** What about the ECL signal [20] of the same binder?
**A.** 316

**Q.** What about the ECL signal [21] of the same binder?
**A.** 304

**Q.** What about the ECL signal [22] of the same binder?
**A.** 405

**Q.** And the ECL signal [23]?
**A.** 193

**Q.** And the ECL signal [24]?
**A.** 2090

**Q.** What about the ECL signal [25] of the same binder?
**A.** 240

B3: Fab VH1-46_IGHD6-6*01_IGHJ1*01 S102A/S103P/S104F (APF) & L6_IGKJ1*01 S92C (Fab, V domains shown)
VH: B1 VH
VL: B2 VL with N92C
notes: Fab made in E. coli (heavy chain in plasmid A with CH1, His6 and Flag tags; kappa light chain in plasmid C); also called APF / S92C
**Q.** With B3 as the binder, how does the ECL signal [26] read?
**A.** 156

**Q.** What about the ECL signal [27] of the same binder?
**A.** 302

**Q.** What about the ECL signal [28] of the same binder?
**A.** 335

**Q.** What about the ECL signal [29] of the same binder?
**A.** 125

**Q.** And the ECL signal [30]?
**A.** 265

B4: Fab VH1-46_IGHD6-6*01_IGHJ1*01 S102A/S103P/S104F (APF) & L6_IGKJ1*01 R91Q (Fab, V domains shown)
VH: B1 VH
VL: B2 VL with R91Q, N92S
notes: Fab made in E. coli: VH cloned into Plasmid A (CH1, His6 and Flag tags), VL into Plasmid C (kappa CL); also called APF / R91Q
**Q.** Which results are given for B4?
**A.** ECL signal [31]: 268; ECL signal [32]: 229; ECL signal [33]: 290; ECL signal [34]: 263; ECL signal [35]: 234; ECL signal [36]: 314; ECL signal [37]: 817; ECL signal [38]: 325; ECL signal [39]: 210
